According to patent US12006530B2, “Streptococcal proteases” (priority 2016, dated 2024):

Tests used:
IgG = IgG degrading cysteine protease activity: specificity as summarised; assay type: biochemical; settings: summary statement
Description: Typically, polypeptides for use in accordance with the invention display immunoglobulin cysteine protease activity, and in particular IgG degrading cysteine protease activity. Preferably, the polypeptide cleaves IgG in the hinge region and more particularly in the hinge region of the heavy chain. Preferably, cleavage results in production of Fc and Fab fragments of IgG. Preferably the activity is specific for IgG. The IgG degrading cysteine protease activity may be determined by means of a suitable assay. For example, a test polypeptide may be incubated with IgG at a suitable temperature, such as 37° C. The starting materials and the reaction products may then be analysed by SDS PAGE to determine whether the desired IgG cleavage product is present. Typically this cleavage product is a 32 kDa fragment. Typically there is no further degradation of IgG after this first cleavage. The cleavage product may be subjected to N-terminal sequencing to verify that cleavage has occurred in the hinge region of IgG.
The IgG degrading cysteine protease activity of the polypeptides is generally IgG-specific in that the polypeptides may not degrade other classes of Ig, namely IgM, and IgA, when incubated with these immunoglobulins under conditions that permit cleavage of IgG.

monoclonal human IgG1 = assay: Cleavage of human IgG subclasses, SDS-PAGE; assay type: biochemical; settings: 18 h, 37° C., reducing SDS-PAGE
Experimental: (§1) (A) rIgdEagalactiae was incubated with polyclonal IgG of six different species for 18 h at 37° C. and analyzed by SDS-PAGE under reducing conditions. Degradation products are indicated by asterisks (*). Images of different gels have been used to create the figure. (B) rIgdEagalactiae was incubated with human or bovine serum for 18 h in 37° C. and analyzed by SDS-PAGE under reducing conditions. Degradation products are indicated by asterisks (*). (C) Western Blot with crude extracts of rIgdEagalactiae incubated with human and porcine serum for 18 h in 37° C. Membrane was treated with antibodies against human and porcine polyclonal IgG respectively. Degradation products are indicated by asterisks (*). (D) rIgdEagalactiae was incubated with subclasses of human IgG as well as human IgA and IgM for 18 h in 37° C. and analyzed by SDS-PAGE under reducing conditions. Degradation products are indicated by asterisks (*). Images of different gels have been used to create the figure.

monoclonal human IgG3 = monoclonal human IgG3 (Homo sapiens, UniProt P01860); assay: Cleavage of human IgG subclasses, SDS-PAGE; assay type: biochemical; settings: 18 h, 37° C., reducing SDS-PAGE
Sequence of monoclonal human IgG3 (P01860 1-377 isoform P01860-1): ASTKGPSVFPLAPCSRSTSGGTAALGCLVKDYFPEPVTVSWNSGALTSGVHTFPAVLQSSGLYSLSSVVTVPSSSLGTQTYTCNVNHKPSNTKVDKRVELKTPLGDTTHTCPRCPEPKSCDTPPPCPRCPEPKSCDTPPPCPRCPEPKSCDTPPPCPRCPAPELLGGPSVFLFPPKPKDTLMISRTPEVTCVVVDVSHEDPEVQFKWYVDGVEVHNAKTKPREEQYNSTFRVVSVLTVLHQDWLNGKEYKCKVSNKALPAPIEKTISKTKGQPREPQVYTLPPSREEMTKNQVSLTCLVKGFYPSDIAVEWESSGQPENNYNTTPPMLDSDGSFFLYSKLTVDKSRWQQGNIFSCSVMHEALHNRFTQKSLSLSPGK
Experimental: as §1

monoclonal human IgG4 = monoclonal human IgG4 (Homo sapiens, UniProt P01861); assay: Cleavage of human IgG subclasses, SDS-PAGE; assay type: biochemical; settings: 18 h, 37° C., reducing SDS-PAGE
Sequence of monoclonal human IgG4 (P01861 1-327 isoform P01861-1): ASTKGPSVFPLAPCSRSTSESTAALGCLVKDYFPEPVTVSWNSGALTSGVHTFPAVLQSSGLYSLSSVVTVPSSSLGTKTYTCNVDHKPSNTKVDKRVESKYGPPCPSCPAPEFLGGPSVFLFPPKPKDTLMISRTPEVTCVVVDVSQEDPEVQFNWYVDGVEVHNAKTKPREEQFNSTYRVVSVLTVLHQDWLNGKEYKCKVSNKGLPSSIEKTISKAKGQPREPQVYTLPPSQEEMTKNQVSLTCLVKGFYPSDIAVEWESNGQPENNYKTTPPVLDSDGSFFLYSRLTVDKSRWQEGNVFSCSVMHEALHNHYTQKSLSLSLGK
Experimental: as §1

monoclonal human IgG2 = assay: Cleavage of human IgG subclasses, SDS-PAGE; assay type: biochemical; settings: 18 h, 37° C., reducing SDS-PAGE
Experimental: as §1

human serum IgG1 = biological target: T1, human serum IgG1 (Homo sapiens, UniProt P01857); assay: Degradation of human serum IgG1, non-reducing Western blot; assay type: biochemical; settings: 18 h at 37° C.
T1 construct: Human serum and monoclonal human IgG1 were incubated in presence (+) or absence (−) of rIgdEagalactiae; from tissue; host or cells: human serum
T1 sequence (P01857 1-330 isoform P01857-1): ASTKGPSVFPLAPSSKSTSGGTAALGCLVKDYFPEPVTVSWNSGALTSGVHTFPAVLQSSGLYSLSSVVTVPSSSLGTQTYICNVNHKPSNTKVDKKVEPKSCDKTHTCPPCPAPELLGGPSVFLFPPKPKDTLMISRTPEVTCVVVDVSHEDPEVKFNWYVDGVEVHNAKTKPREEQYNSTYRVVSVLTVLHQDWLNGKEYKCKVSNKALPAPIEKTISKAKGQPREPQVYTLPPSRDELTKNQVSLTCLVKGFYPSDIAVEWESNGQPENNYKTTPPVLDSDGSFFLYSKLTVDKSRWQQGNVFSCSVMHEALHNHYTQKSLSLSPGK
Experimental: Human serum and monoclonal human IgG1 were incubated in presence (+) or absence (−) of rIgdEagalactiae for 18 h at 37° C. and analyzed by Western blot under non-reducing conditions with a human IgG-specific antibody.

IgG in human serum = assay: Ig cleavage in human serum, anti-IgG Western blot; assay type: biochemical
Experimental: as §1

mouse IgG = assay: IgG cleavage by IgdE, SDS-PAGE; assay type: biochemical; settings: purified polyclonal IgG, reducing SDS-PAGE
Experimental: (§2) 0.5 mg/ml of porcine IgG (Sigma) in PBS or of other species (human, goat, cow, horse and mouse; all Sigma) were incubated with either crude extracts of induced E. coli carrying S. suis IgdE constructs mentioned above or 10 nM purified rIgdE for 16 h at 37° C. prior subjection to SDS-PAGE under either reducing or non-reducing conditions.
(§3) Samples for SDS-PAGE were prepared with either reducing or non-reducing sample buffer and heated to 95° C. for 5 min. 12% SDS-PAGE was either stained with Coomassie blue (Sigma), Coomassie Fluor™ Orange Protein Gel Stain (Invitrogen) or blotted to Hybond-P PVDF membrane (GE Healthcare) for western blot analyses. Membranes were blocked with 5% dry milk powder in 0.1% PBS-Tween, followed by incubation with horse-radish peroxidase conjugated antibodies. Goat anti-pig IgG-HRP (Thermo Scientific) and goat anti-porcine IgM-HRP (Thermo Scientific) was diluted 1:25′000 and goat anti-porcine IgA-HRP (Thermo Scientific) was diluted 1:12′500. Membranes were thoroughly washed with 0.1% PBS-Tween prior to development with Amersham ECL Select Western blotting detection reagent (GE Healthcare) according to manufactures instruction and pictured by LAS4000 imaging system (Fujifilm).

cow IgG = assay: IgG cleavage by IgdE, SDS-PAGE; assay type: biochemical; settings: purified polyclonal IgG, reducing SDS-PAGE
Experimental: as §2, §3

horse IgG = assay: IgG cleavage by IgdE, SDS-PAGE; assay type: biochemical; settings: purified polyclonal IgG, reducing SDS-PAGE
Experimental: as §2, §3

goat IgG = assay: IgG cleavage by IgdE, SDS-PAGE; assay type: biochemical; settings: purified polyclonal IgG, reducing SDS-PAGE
Experimental: as §2, §3

human IgG = assay: IgG cleavage by IgdE, SDS-PAGE; assay type: biochemical; settings: purified polyclonal IgG, reducing SDS-PAGE
Experimental: as §1, §2, §3

porcine IgG = assay: IgG cleavage by IgdE, SDS-PAGE; assay type: biochemical, pig; settings: purified polyclonal IgG, reducing SDS-PAGE
Experimental: (A) Schematic illustration of IgdE and the different rIgdE constructs with potential active site residues substitutions and the C-terminal truncation variant. The secretion signal peptide (residues 1-37) is marked in light grey, the transglutaminase domain is boxed and the potential active site residues and substitutions are indicated. (B) 3.3 μM porcine IgG was incubated for 16 h at 37° C. with soluble fractions of E. coli cells expressing different rIgdE constructs. The reaction was analyzed SDS-PAGE under reducing conditions. […] The weak protein band of 37 kDa is a contaminant present in lysate preparation and not related to IgdE activity.
as §2, §3

rat IgG = assay: IgG cleavage by IgdE, SDS-PAGE; assay type: biochemical; settings: purified polyclonal IgG
equine IgG3 = assay: Cleavage of recombinant equine IgG subtypes, SDS-PAGE; assay type: biochemical, horse; settings: 0.6 μM, 16 h at 37° C., reducing SDS-PAGE
Experimental: (§4) 0.6 μM recombinant equine IgG subtypes or serum IgG were incubated for 16 h at 37° C. with (+) or without (−) the soluble fraction of E. coli cells expressing rIgdEequi. Reactions were analyzed by SDS-PAGE under reducing conditions. […] SDS-PAGE was either stained with Coomassie Fluor Orange Protein Gel Stain (A) or subjected to Western blot (B) analyses with Rabbit Anti-Horse IgG H&L (HRP) ab6921.

equine IgG5 = assay: as above; assay type: biochemical, horse; settings: 0.6 μM, 16 h at 37° C., reducing SDS-PAGE
Experimental: as §4

equine IgG1 = assay: as above; assay type: biochemical, horse; settings: 0.6 μM, 16 h at 37° C., reducing SDS-PAGE
Experimental: as §4

equine IgG7 = assay: as above; assay type: biochemical, horse; settings: 0.6 μM, 16 h at 37° C., reducing SDS-PAGE
Experimental: as §4

equine IgG4 = assay: as above; assay type: biochemical, horse; settings: 0.6 μM, 16 h at 37° C., reducing SDS-PAGE
Experimental: as §4

equine IgG6 = assay: as above; assay type: biochemical, horse; settings: 0.6 μM, 16 h at 37° C., reducing SDS-PAGE
Experimental: as §4

equine IgG2 = assay: as above; assay type: biochemical, horse; settings: 0.6 μM, 16 h at 37° C., reducing SDS-PAGE
Experimental: as §4

rabbit IgG = assay: IgG cleavage by IgdE, SDS-PAGE; assay type: biochemical; settings: purified polyclonal IgG
IgG in equine serum = assay: Ig cleavage in equine serum, anti-IgG Western blot; assay type: biochemical, horse

B1: IgdEagalactiae: IgdE isolated from S. agalactiae strain CCUG4208, SEQ ID NO: 3 (protein, listed as Streptococcus agalactiae)
chain: NQNNIQETNLVEKNSEDKFIQELNRYKTEIPNFKGFNVWILGDKGYYKNLINLEEIKNIQATLKKERNEEYVFVKLNGKIAHDTTVFLMNKKHKLLKNIEEFKTITQKRLTERGKFPYDTVHSTFEIKDENFIMERLKSSGLSMGKPVDYMGVNGIPIYTKTLSIDNKFAFENNSKDSSYSSNINISEDKIKENDQKILDLIVKSGANNQNLTDEEKVIAFTKYIGEITNYDNEAYRARNVDTEYYRASDLFSVTERKLAMCVGYSVTAARAFNIMGIPSYVVSGKSPQGISHAAVRAYYNRSWHIIDITASTYWKNGNYKTTYSDFIKEYCIDGYDVYDPAKTNNRFKVKYMESNEAFENWIHNNGSKSMLFINESAALKDKKPKDDFVPVTEKEKNELIDKYKKLLSQIPENTQNPGEKNIRDYLKNEYEEILKKDNLFEHEHAEFKESLNLNESFYLQLKKEEKKPSDNLKKEEKPRENSVKERETPAENNDFVSVTEKNNLIDKYKELLSKIPENTQNPGEKNIRNYLEKEYEELLQKDKLFKHEYTEFTKSLNLNETFYSQLKEGEMKLSENPEKGETNTN
immunoglobulin specificity of the IgG degrading cysteine protease activity (IgG): specific for human IgG, and specifically human IgG1 | cleavage of monoclonal human IgG1 kappa (32 kDa degradation product) (monoclonal human IgG1): cleaved | cleavage of monoclonal human IgG1 lambda (32 kDa degradation product) (monoclonal human IgG1): cleaved | cleavage of monoclonal human IgG3 (monoclonal human IgG3): No degradation product was observed | cleavage of monoclonal human IgG4 (monoclonal human IgG4): No degradation product was observed | cleavage of monoclonal human IgG2 (monoclonal human IgG2): No degradation product was observed | degradation of human serum IgG1 (human serum IgG1): degrades human serum IgG1 completely to single cleaved IgG1 | cleavage of IgG in human serum (IgG in human serum): cleaved IgG in human serum | cleavage of polyclonal mouse IgG (mouse IgG): No degradation product was observed | cleavage of polyclonal cow IgG (cow IgG): No degradation product was observed | cleavage of polyclonal horse IgG (horse IgG): No degradation product was observed | cleavage of polyclonal goat IgG (goat IgG): No degradation product was observed | cleavage of polyclonal human IgG (32 kDa degradation product) (human IgG): cleaved | cleavage of polyclonal porcine IgG (32 kDa degradation product) (porcine IgG): No degradation product was observed

B2: IgdEequi: IgdE isolated from S. equi strain ssp zooepidemicus #1, SEQ ID NO: 7 (protein, listed as Streptococcus equi)
chain: MEAWKHGSMEAWKHGSMEAWKHGRTLCKGLLLGLACGAISMSLVVKSTIVVADDVRLSEQSTVILDNTVSNLISEVKDELAKNHQDALEIYILGEGSPKYSGVSPDRLGDYIKDYKPVRLNGKVIHGRAFFMMKKEDQLISTKEEYDRIIAERFSNLEKFDYPTIHYTFNAELKDKYPYLSLILKASGLSLSDSINLGSTLGINGVTIHTQHLRIDNQFAYRYNGEDYKQDSHITFDRFKKNDDKLKELIATSGANQEGLTDAQRVKAYVLYMANHVDYDWDATRYNPDYLIFCQASDLFALTERNKAMCIGFSTAAARGLNLLGIPSYVTYGKNRDGVAHATIRAFYDKKWRTLDVTGVGRGKYTEEHYDNLNTHDYKIFDLTKETNVDLDRGYMEIYKDFEDWILSHNTKELLFINQDANIRNKVAKDVFKYIQEAEKQSLIDKYNEFIIRTSALKAEFKTDRLKEIVGSLVSQAQEELENIKHIEVMTEDEKDQFEYTLRNLGVYYSQCESANQ
immunoglobulin specificity of the IgG degrading cysteine protease activity (IgG): specific for equine IgG, and specifically equine IgG7 | cleavage of polyclonal rat IgG (rat IgG): No degradation product was observed | cleavage of recombinant equine IgG3 (equine IgG3): No degradation product was observed | cleavage of recombinant equine IgG5 (equine IgG5): No degradation product was observed | cleavage of recombinant equine IgG1 (equine IgG1): No degradation product was observed | cleavage of recombinant equine IgG7 (32 kDa degradation product) (equine IgG7): cleaved | cleavage of recombinant equine IgG4 (equine IgG4): No degradation product was observed | cleavage of recombinant equine IgG6 (equine IgG6): No degradation product was observed | cleavage of recombinant equine IgG2 (equine IgG2): No degradation product was observed | cleavage of polyclonal rabbit IgG (rabbit IgG): No degradation product was observed | cleavage of polyclonal mouse IgG (mouse IgG): No degradation product was observed | cleavage of polyclonal cow IgG (cow IgG): No degradation product was observed | cleavage of polyclonal horse IgG (horse IgG): cleaved | cleavage of polyclonal goat IgG (goat IgG): No degradation product was observed | cleavage of IgG in equine serum (IgG in equine serum): cleaved IgG in equine serum | cleavage of polyclonal human IgG (32 kDa degradation product) (human IgG): No degradation product was observed | cleavage of polyclonal porcine IgG (32 kDa degradation product) (porcine IgG): No degradation product was observed
